{"source": "patent US20050119163A1", "target": "Biotinylated Grb2 SH2 domain protein (UniProt P62993)", "sequence (P62993 60-152 limits assumed)": "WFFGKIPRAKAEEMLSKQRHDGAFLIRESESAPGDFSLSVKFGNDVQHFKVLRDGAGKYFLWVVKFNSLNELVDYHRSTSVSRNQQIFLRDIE", "assay": "SPR (Biacore S51), b-Grb2 amine-coupled on CM5 chip, compound in solution"}
{"substance": "Compound 6, tri-sodium salt of compound 5: 2-{(9S,10S,14R,18S)-7,16,19-Triaza-18-(carbamoylmethyl)-14-[(5-methyl indolyl)methyl]-8,17,20-trioxo-10-[4-(phosphonomethyl)phenyl]spiro[5.14]icos-11-en-9-yl}acetic acid (peptide)", "values": [{"measurement": "Kd", "result": 1.67, "unit": "nM"}]}
